The series in a line: soluble on expression in E. coli; label from the status in PepcDB or PDB records.
Consider “MGSDKIHHHHHHMKTLIKNVHILTMDEQFSEIKAGYLVIEEDTIVELAPMTTLDEKRMAANQVIDGQNGILMPGMINTHTHVGMIPFRSLGDDVPDRLRRFLFPLEQFMTKELVGCSSDYAIAEMLLSGITSFCDMYYFEDEIAKSCEKMSVRALLGETIIDMPTCDSPEPSGGLFYAETFIRKWQGHPLITPMLAPHAPNTNSPEVLAKIIELSRQYQVPVTMHVAEMTYEMAEFEKAYQKTPIAFLEELGYLSEPFILAHCILATDEDLASLAATNGKARVAHCIGANTKSAKGVAPIKQMLDQGIIVGLGTDGPSSGNTLDLFTQMRMVANFHKTAHQDRSLFPAKEIVYLATMGGAKTLGLAEQVGSLEVDKKADITLIETQSVNMFPIFDAYSALVYSANASNVEAVWVNGQQLVANKELQQANLKEIKEKLYQAMNTFVKEAKKRAAL”, for which the “soluble on expression in E. coli” value is given as “not soluble”. In the case of “MAHHHHHHMVATITFKLRSSNHVGIIEVPHRVISCREIKEAIAEKLSGSPDEIDIFVSGSSDYLHPNDELPAYTVVEVVRHVGTGRPPPKREREPVGPSNLSSAMSHAAVRAGNKNGDTATPLTEEERLAQLSEAVAVETGIDEVGAWRMRQMRNRSAAMGGGGREVTFRPPPPGYICHNCGKRGHLIQHCPAAKGVRGVKLLSLPTGIPETMLVECTMDDPAAKFVTRDGRLVKRKLDNASFVGIVTTSNADGVKPDFPSEGGNNRNDSPNSEKLETPDAGGDAAAKPQFLCAWDSVIVKNAMKAPCCGALFCETCLNERVEEAISRADASEIPLLCPGCEEPLDVPDVVEATEERKLVEALRSGKRARD” it was “not soluble”; in that of “FIFLALLGAAVAFPVDDDDKIVGGYTCGANTVPYQVSLNSGYHFCGGSLINSQWVVSAAHCYKSGIQVRLGEDNINVVEGNEQFISASKSIVHPSYNSNTLNNDIMLIKLKSAASLNSRVASISLPTSCASAGTQCLISGWGNTKSSGTSYPDVLKCLKAPILSDSSCKSAYPGQITSNMFCAGYLEGGKDSCQGDSGGPVVCSGKLQGIVSWGSGCAQKNKPGVYTKVCNYVSWIKQTIASN”, “soluble”; in that of “ALGDTLTITLGGSGGTAKVLRKINQDGYTSEYYLPETSSSFRAKVRHTKESVKPNQVQYERHNVEFTETVYASGSTPEFVRQAYVVIRHKVGDVSATVSDLGEALSFYLNEALYGKLIGWES”, “soluble”. “MSVFAFSFCAVVIMPNLLAMSDEETRGRQAMVANFVKDNQKTIRNGKGDKWMSNFLKTQNLTFHRSLSSPSAMSDSSSQNLVVLADVGTAACASGWTRYDLTGMCYQQSKKTMNWYQGEDYCWNLRPGAHSASVHSQEEAKWLNSLYRDKKNGGQMDSWIGLRRDCDNVTYIWTDGSPTDCLWWQPDYPKSEFAEFSCVTIWETDWLYDNPAYIPGQYDDMKECSDDGSNTPTTTTTMQTTTPSTTSTPTTTSTTTTTSASTTTISTTKPPTTQIDIEKCTSNCPVGWIYFGGLCYSKIQGPGRFVDFNSECTRLGGKLGEVSGADGNEALRLALTSNNGNKILDEAWIQHIGSYNNVASGYVGTAGSCYTVLKNSQTN”: the “soluble on expression in E. coli” value is “not soluble”. In the case of “MGSDKIHHHHHHMMKSNENNGAVTKSFAKKMESISPFELKNKLIEMADESIKKIAHTMLNAGRGNPNWIATTPREAFFLLGKFGLEECRRVMYLPEGIAGIPQKDGIAARFETFLKTNHSQPGAELLKGTYQYMLLEHAADPDTLVHEWAEGVVGDQYPVPDRILQFTEMIVQDYLAQEMCDRRPPKGKYDLFATEGGTAAMCYVFDSLQENFLLNKGDGIALMVPVFTPYIEIPQLRRYEFNVTEISADQMTTDGLHTWQYKDEDIDRLRNPQIKALFITNPSNPPSYTLSPETAARIVDIVKKDNPNLMIITDDVYGTFSPHFRSLMAELPQNTLCVYSFSKYFGATGWRDAVIALHEENIFDRMIAHLPEEQKTILNKRYSSLTLTPEKLKFIDRMVADSRQVALNHTAGLSLPQQTQMSLFASFAILDKENRYKNKMQEIIRRRLKALWDNTGFSLVDDPLRVGYYSEIDMLVWAKIFYGEEFVSYLKKTYSPLDVVFRLANETSLVLLNGGGFAGPEWSVRVSLANLNEKDYVKIGQGIKRILDEYAVKWQESRK” it was “not soluble”; in that of “MAHTITIVGLGNYGIDDLPLGIYKFLKTQDKVYARTLDHPVIESLQDELTFQSFDHVYEAHDQFEDVYNDIVAQLVEAANEKDIVYAVPGHPRVAETTTVKLLALAKDNTDIDVKVLGG”, “soluble”. In the case of “MLETRMQTTPLKIGISACLLGAKVRFDGGHKISHFVTNELDRYAEFVSVCPEMGMGLPVPRPTLRLISENERIALVETKDSSRDHTAALESYSQQKVAELQHAELCGYIVCAKSPSCGMERVKVYKHNGTEKDGVGVYTRILMEKMPWLPIEEDGRLNDPVLRENYITRVFCLHDFYTSMGDAPSAKKIVEFHSRYKLTLMAHNPQAYRALGRLVANVKQYPLDSFIQEYRLGLMQALAHRASRKNNTNVLMHLQGYFKRSLNKLQKAELAQVIESYRVGELPLLAPITLLKHYLALFPDAYLAQQRYLNPYPQELKLRYGL” it was “not soluble”. For the sequence “MACTGYEELRKWFLDKMVNACRAIRDQKEDQSNSAAKKAMLYIQENYNKDISLDDVSGIVNISPYYFSKIFKEETGENFIEYVTKVRIEKAKEFLAQPDISIKEAGIRSGYTDPNYFSRIFKKQTDMTPSEYKTRYGK”, the “soluble on expression in E. coli” value is given as “not soluble”. In the case of “MGSDKIHHHHHHMTTTEQELTLTPLRGKSGKAYKGTYPNGECVFIKLNTTPILPALAKEQIAPQLLWAKRMGNGDMMSAQEWLNGRTLTKEDMNSKQIIHILLRLHKSKKLVNQLLQLNYKIENPYDLLVDFEQNAPLQIQQNSYLQAIVKELKRSLPEFKSEVATIVHGDIKHSNWVITTSGMIFLVDWDSVRLTDRMYDVAYLLSHYIPRSRWSEWLSYYGYKNNDKVMQKIIWYGQFSHLTQILKCFDKRDMEHVNQEIYALRKFREIFRKK” it was “not soluble”; in that of “MGILNKILTAFRGGATEVGQSIVDANSTRIFEQEIRDAEKHLTNAKRELTDVMAKEMQASREVDRLKRSIAEHEGYVTQALDKGNEALAIEVAEKIAQLEQELAEQQTANDSFSAHALRLKDLVKKTERQLSDYQRQLSMVKTTESVQKATATITDSFASSNSKLLNAKDSLERIKARQQQFDDRLKAAETLAEEGSDKSLQAKLAEAGIGEQKSNANAVLERIKARKSLEHHHHHH”, “not soluble”; in that of “MEAEKKKLSIPPKGIRAIIEAIRLGEIIKPSQYAKREAFKKHDVEEAWLNRVLTMIFYDIMKKQGLIDKVIKEIVGVTPLILDPWLRAALRVAVDIALFHDPSSQTIKNLRWKASDFISSRTHPYVGMYFWDLLDKIFEYKPNPKNELEELEWKYLAPSWLIERVKGILGDETEDFFRSVNKRHEWISIRVNTLKANVEEVIGELEEDGVEVVRSERVPTILKIKGPYNFDTSSAFNEGKIIVQEEASAVASIVLDPKPGETVVDLAAAPGGKTTHLAELMKNKGKIYAFDVDKMRMKRLKDFVKRMGIKIVKPLVKDARKAPEIIGEEVADKVLLDAPCTSSGTIGKNPELRWRLREDKINEMSQLQRELLESAARLVKPGGRLLYTTCSIFKEENEKNIRWFLNVHPEFKLVPLKSPYDPGFLEGTMRAWPHRHSTIGFFYALLEKSK”, “soluble”.

On to “TPTTFVHLFEWNWQDVAQECEQYLGPKGYAAVQVSPPNEHITGSQWWTRYQPVSYELQSRGGNRAQFIDMVNRCSAAGVDIYVDTLINHMAAGSGTGTAGNSFGNKSFPIYSPQDFHESCTINNSDYGNDRYRVQNCELVGLADLDTASNYVQNTIAAYINDLQAIGVKGFRFDASKHVAASDIQSLMAKVNGSPVVFQEVIDQGGEAVGASEYLSTGLVTEFKYSTELGNTFRNGSLAWLSNFGEGWGFMPSSSAVVFVDNHDNQRGHGGAGNVITFEDGRLYDLANVFMLAYPYGYPRVMSSYDFHGDTDAGGPNVPVHNNGNLECFASNWKCEHRWSYIAGGVDFRNNTADNWAVTNWWDNTNNQISFGRGSSGHMAINKEDSTLTATVQTDMASGQYCNVLKGELSADAKSCSGEVITVNSDGTINLNIGAWDAMAIHKNAKLNTSSAS”, for which the “soluble on expression in E. coli” value was “soluble”.
